Results on 130 substances are retold here after the supplement of paper PMC12042874.

± gives the uncertainty stated by the source.

This data set in a line: amyloid nucleation score (Sup35N fusion, yeast selection) (log enrichment); library NNK3; higher = more nucleation; inactive = no reads after selection. The method, boiled down:
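After 24 hours of induction with 100 μM copper sulfate, psi-negative yeast expressing peptides of 20 random codons fused to Sup35N were grown for 7 days at 30°C on medium lacking adenine and uracil. Input and output plasmid inserts were sequenced with Illumina, and sequences with under 100 input reads were discarded. Scores for nucleation are the DiMSum log enrichment of output over input reads, centred on the mode score of non-aggregating sequences.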
Consider KPCSRVSWNVVQVV, for which the amyloid nucleation score result was “inactive”.

For the substance KPWMVEAPFERA, the amyloid nucleation score result is “inactive”. Next, KQRVASTTTVAPHPKNKD: “inactive”; KQTFKYTGVDHTVT: “inactive”; KRASMPVPGSSWLHQFKE: “inactive”. Next, KRDEVVKFLLDGVGASGYNA: “inactive”; KRDTSWLPVCNSGLSQCRKR: “inactive”.

As for KRFDMMHIQTYEMGWSPSVR, the amyloid nucleation score entry is “inactive”. Next, KRFVFPLLIR: “inactive”; KRKQVSFTH: “inactive”; KRWGEPYRMIVGYMVRYMVT: 2 ± 0.089. In the case of KRYNRFIGHLMTLYRASMGD, the amyloid nucleation score was -0.714 ± 0.88. For the substance KSCWLSYGFQLFIGVMNMH, the amyloid nucleation score worked out at 1.29 ± 0.079. Next, KSGYCNKCMNGFSGTLTSNY: “inactive”. Turning to KSLSGVIREENRDARGFWRS, the amyloid nucleation score entry is “inactive”.

In turn, KSPVWIQIPLMCFLLEFVLG returned an amyloid nucleation score of 0.471 ± 0.2. Next, KSQYTSASP: “inactive”; KSRERFLCSKGMSPQQTHMY: “inactive”. For KSRKFYKTSLCLMNTYLMNM the value was “inactive”; for KSSMKLLSPP, “inactive”.

KSTICACTLIMVNTPFMLSM came in with an amyloid nucleation score of 1.36 ± 0.11.

For the substance KSVVGFFVSARYCCTLGTGG, the amyloid nucleation score result was “inactive”. For KSWNGQMYCVASGKQKTIMY the value was “inactive”; for KSWVIKLSGFVETWHRMD, “inactive”; for KSYLAVVSYFGFTKKADPTG, “inactive”. Next, KTDIPGNHFLTSARLCAG: “inactive”; KTLYTDSS: 0.114 ± 0.58. Next, KTWVSIVSGLKADSGGGLHA: “inactive”. As to KVAILVHILNNLVRVRVCFN, the amyloid nucleation score entry was “inactive”. KVARIVPRFKRQDYTALILD: the amyloid nucleation score entry is “inactive”. With KVCGCSILLLKLRGVNRVVS, the amyloid nucleation score entry was “inactive”. For KVCHSWVWHILGSLDYITRG the value was “inactive”; for KVGAGIDIISFIRNLILALP, “inactive”; for KVGFLFDGLFIFGGR, “inactive”. Next, KVIDGFLTLLSVNHRCKAWQ: “inactive”. For KVIDGVDAMWCMKVFWV the value was “inactive”. KVTYFKSMMHYDNMQSSVRC: the amyloid nucleation score entry is “inactive”. Next, KWNRLLVMRLAVIECRARVA: 0.033 ± 0.9; KWYIMCLVNILVEVIIFNYF: “inactive”. For KWYQVGSVLKRIRLNILRG the value was -1.51 ± 2.4; for KYDVGVYLYLLLPTNCRQQW, 1.46 ± 0.12; for KYGVLLRIHR, 0.499 ± 0.72. With KYHMFRWGLSC, the amyloid nucleation score result was “inactive”. For KYKSVCVKFNEDLTG the value was “inactive”; for KYLLLKRNARQRLHTVCHQA, “inactive”; for KYMGAVFYIIHRTEERYF, 0.874 ± 0.13. Next, KYSTSPNFKIIQVLMGLPLR: “inactive”. As for KYVVSYLGFKFGWKHYSKYY, the amyloid nucleation score entry was “inactive”. For KYVYYSFLERSFDYMYFSRQ the value was “inactive”; for KYYINVVNRRYLNYFGTWLF, 0.617 ± 0.12; for LAAICYEVFGCGTWMGC, “inactive”. On to LAFADRITGYGWSGTVRMMW, for which the amyloid nucleation score entry was “inactive”. Next, LAKHSFSFGVYCNSRNSVMY: “inactive”; LASFEIRNREY: 0.519 ± 0.33; LATRWRCCSCNAWS: -0.593 ± 1.1. LAVGRTWMLVANWDSMGQIV: the amyloid nucleation score result is “inactive”. Next, LAYVHMGGIARWLC: “inactive”.

As for LCCAPNADFWIN, the amyloid nucleation score entry was “inactive”. Next, LCCGKCRPGPKFCTKISHTN: “inactive”; LCCSCWLLIDCQWKDGYLEG: 1.91 ± 0.079; LCIPVDFVGGTIRLCVL: “inactive”.

Take LCKSMRNDSLDYFLHCPGML: the amyloid nucleation score entry is “inactive”. For LCLFRTRVIGVS the value was “inactive”. Take LCLHERCDALSFDDNPYSTR: the amyloid nucleation score entry is “inactive”. Next, LCMFPLIWFILLFRFFKLWG: “inactive”; LCMQFNLVWRYDRRETINSE: 1.16 ± 0.11; LCRKPFDVGLGRV: “inactive”.

As to LCRSGIFKSYWNITMFFKFL, the amyloid nucleation score result was “inactive”. Next, LCTLMCTQFNYFVSETWLVP: 2.25 ± 0.093.

Turning to LCTLSCFAICD, the amyloid nucleation score was determined as 0.74 ± 0.18. Next, LCVMCCATSFSHVCILIYRI: “inactive”; LCVYTYTSTHAVFFIVFDSR: “inactive”. For LCWTVVIHVRTAVRIWLTSR the value was “inactive”; for LCYAWRSGSNTYMHMMNWSM, “inactive”; for LDAVNF, “inactive”.

Take LDFRLFGFPDKNEHYGGEYK: the amyloid nucleation score entry was “inactive”. Next, LDFRSVTDVWSCYI: “inactive”.

For LDGRYKYILFLLPLCRW, the amyloid nucleation score result is “inactive”. Next, LDKAHHHLETAKLLLAWGVI: “inactive”; LDKFHCRFYMQNSN: “inactive”; LDLLHFGYFIYFDEL: “inactive”. For LDMQEPPVNAVRHYLSL the value was “inactive”; for LDRSVMIRFGLELMRWSSGG, 0.356 ± 0.35. Next, LDTSD: “inactive”; LDTYTRNYLD: “inactive”.

Consider LDYNVRVGIVSRFTQLTHVN, for which the amyloid nucleation score entry is “inactive”.

On to LDYPNVCMDFLSKVFRDSVR, for which the amyloid nucleation score result is “inactive”.

With LEFSYPCRWA, the amyloid nucleation score entry was “inactive”. For LEGLMANVMRGFRSVVPATW the value was “inactive”; for LEGSKKSDSSLARSWYFFET, “inactive”; for LELGTLTNRSLCFCEILPFC, “inactive”. For LESLPINNEFSMQSYTRIVI the value was “inactive”; for LFCLLLHNIGKFRYMFY, “inactive”; for LFDALYLEVTLGSSMVYVKN, “inactive”. Next, LFELDKLNRVHLNGVMGVII: “inactive”; LFFSRS: “inactive”; LFFYFLEPR: “inactive”. With LFGQVVGVDFFNWWCFEMHK, the amyloid nucleation score entry is “inactive”. Next, LFLKFDNSSWLMLKVMDTNI: 0.961 ± 0.19.

In the case of LFLRDNF, the amyloid nucleation score entry is “inactive”. Next, LFLSMGYLDGFYPIRSISYL: “inactive”. For LFMINLDPASMVHMTPCFTN the value was “inactive”; for LFMLIFGCVHARNYFKPKKV, “inactive”; for LFNLL, “inactive”.

Regarding LFNYVEEIRAVRRIRLGYIK, the amyloid nucleation score result is “inactive”. For LFQLHMVLSF the value was “inactive”; for LFRHLVNRLNLTSTAKYHGF, “inactive”; for LFSQHYWIVSIFIASWIRYC, “inactive”. With LFSSVC, the amyloid nucleation score entry is “inactive”. For LFSVMSKYSFRWLRDNFCHA, the amyloid nucleation score result is “inactive”. LFTDPCCTIGMSFRV had an amyloid nucleation score of 1.08 ± 0.075. Turning to LFVCRLMENLEGY, the amyloid nucleation score entry is “inactive”. Turning to LFVYHCYIFSMRSRCMSHLY, the amyloid nucleation score result was “inactive”.

With LFYDCELGLTSVRWLGWGRN, the amyloid nucleation score entry was “inactive”.

Turning to LFYIWQSFQFRN, the amyloid nucleation score entry is “inactive”. Next, LGCTGALNNRCCERQANGRQ: “inactive”; LGEWYWYYFFRARR: “inactive”. On to LGKGICKSTWLQQCRGKSDF, for which the amyloid nucleation score entry was “inactive”.

For LGPAVELGMT, the amyloid nucleation score entry is “inactive”. For LGPMAGRVSRYCNAARLTRC the value was -0.999 ± 2.4.

As to LGQFAIAQYFNRYSRGPMLW, the amyloid nucleation score entry is “inactive”. For LGRCRWMDPHILLVLHVPCE the value was “inactive”; for LGRLVG, “inactive”. For LGRPYQHVWYIHSEVKGVEY the value was 0.116 ± 0.28; for LGRRLAMSV, 0.692 ± 0.19; for LGSLPGGETLHCLNRFQRLS, “inactive”. Turning to LGSMAINCNERCITWCHRFI, the amyloid nucleation score was determined as 0.668 ± 0.25. For LGTGSLNHST the value was “inactive”; for LGVRCYNFIRFKYLSCLRLP, “inactive”. As to LGYIQEN, the amyloid nucleation score entry was “inactive”.
